Columns and labels:
[1] = target: Robo1 protein (ORIGEN, Art. No.: TP327713) (UniProt Q9Y6N7); test: ELISA, Robo1 coated at 1 µg/ml, detection with anti-HSA-HRP; stability test, samples 'after treatment' (treatment not described); after treatment (stability test), binding ELISA on coated Robo1
[2] = target: Robo1 protein (ORIGEN, Art. No.: TP327713) (UniProt Q9Y6N7); test: SPR (BIAcore), Robo1 bound to CM5 chip
[3] = target: Robo1 protein (ORIGEN, Art. No.: TP327713) (UniProt Q9Y6N7); test: SPR (BIAcore), Robo1 bound to CM5 chip; column headed 'Kd(nM)'
[4] = target: T1, Robo1 protein (ORIGEN, Art. No.: TP327713) (UniProt Q9Y6N7-5 1-1606, limits assumed); test: SPR (BIAcore), Robo1 bound to CM5 chip; column headed 'KD(M)', by arithmetic the dissociation rate; exponent doubtful
T1 construct: Bought recombinant protein; also called receptor Robo1; receptor protein Robo1
T1 sequence (Q9Y6N7 other isoform, or with tags, fused parts or gaps limits assumed): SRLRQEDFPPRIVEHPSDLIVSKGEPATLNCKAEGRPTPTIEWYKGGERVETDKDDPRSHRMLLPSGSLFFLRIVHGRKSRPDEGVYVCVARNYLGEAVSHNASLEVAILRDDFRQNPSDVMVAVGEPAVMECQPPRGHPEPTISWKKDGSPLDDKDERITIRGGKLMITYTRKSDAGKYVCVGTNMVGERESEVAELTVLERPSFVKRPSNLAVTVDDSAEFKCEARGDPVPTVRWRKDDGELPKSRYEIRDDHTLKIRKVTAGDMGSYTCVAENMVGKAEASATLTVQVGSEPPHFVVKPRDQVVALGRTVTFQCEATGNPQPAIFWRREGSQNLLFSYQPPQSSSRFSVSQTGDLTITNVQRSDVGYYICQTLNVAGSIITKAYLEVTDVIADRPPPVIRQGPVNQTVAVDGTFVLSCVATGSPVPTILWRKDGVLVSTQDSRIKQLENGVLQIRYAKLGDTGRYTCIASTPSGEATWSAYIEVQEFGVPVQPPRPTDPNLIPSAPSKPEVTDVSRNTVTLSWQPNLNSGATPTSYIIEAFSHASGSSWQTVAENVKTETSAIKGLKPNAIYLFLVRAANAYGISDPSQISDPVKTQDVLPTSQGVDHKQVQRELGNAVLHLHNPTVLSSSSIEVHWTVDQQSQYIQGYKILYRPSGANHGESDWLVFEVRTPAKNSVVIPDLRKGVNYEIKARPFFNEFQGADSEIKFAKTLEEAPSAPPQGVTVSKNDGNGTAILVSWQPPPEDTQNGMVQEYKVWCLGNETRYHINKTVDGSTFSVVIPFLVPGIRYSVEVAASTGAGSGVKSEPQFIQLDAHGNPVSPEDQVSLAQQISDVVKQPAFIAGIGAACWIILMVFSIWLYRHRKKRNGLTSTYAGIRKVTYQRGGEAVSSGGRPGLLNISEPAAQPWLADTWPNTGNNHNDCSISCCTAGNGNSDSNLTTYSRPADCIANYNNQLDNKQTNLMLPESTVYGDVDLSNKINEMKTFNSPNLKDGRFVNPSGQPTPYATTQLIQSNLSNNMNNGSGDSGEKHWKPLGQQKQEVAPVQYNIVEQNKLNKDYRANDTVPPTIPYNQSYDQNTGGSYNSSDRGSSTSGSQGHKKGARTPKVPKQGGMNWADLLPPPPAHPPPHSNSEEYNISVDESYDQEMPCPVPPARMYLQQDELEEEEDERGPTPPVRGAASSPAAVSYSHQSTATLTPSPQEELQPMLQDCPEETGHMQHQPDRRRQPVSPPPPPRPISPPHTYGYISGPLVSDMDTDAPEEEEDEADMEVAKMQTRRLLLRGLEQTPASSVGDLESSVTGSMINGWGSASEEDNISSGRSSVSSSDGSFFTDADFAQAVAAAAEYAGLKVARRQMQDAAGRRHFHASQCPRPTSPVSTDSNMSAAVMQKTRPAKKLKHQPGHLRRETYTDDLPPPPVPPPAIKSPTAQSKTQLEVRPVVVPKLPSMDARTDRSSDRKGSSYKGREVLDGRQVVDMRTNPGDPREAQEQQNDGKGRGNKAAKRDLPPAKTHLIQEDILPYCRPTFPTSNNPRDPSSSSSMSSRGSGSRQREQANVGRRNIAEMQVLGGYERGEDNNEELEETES
Protocol: (§1) The affinity constant between the protein and Robo1 protein was detected by SPR (Surface Plasmon resonance BIAcore 200) method. […] Kinetic measurements were performed according to the method referred by Canziani et al. (2004, Anal. Biochem. 325: 301-307). Furthermore, the affinity of the Slit2N protein (Slit2N is a protein having a molecular weight of about 120 kDa at the N-terminus of the Slit2 protein) to Robo1 protein was also determined by the same method.

[5] = target: T1, Robo1 protein (ORIGEN, Art. No.: …); test: SPR (BIAcore), Robo1 bound to CM5 chip
Protocol: as §1

[6] = target: T1, Robo1 protein (ORIGEN, Art. No.: …); test: SPR (BIAcore), Robo1 bound to CM5 chip; column headed 'Kd(nM)'
Protocol: as §1

Chain of Robo1 protein (ORIGEN, Art. No.: TP327713) (UniProt Q9Y6N7) (Q9Y6N7 other isoform, or with tags, fused parts or gaps limits assumed): as above

EC50 [1] [nM]	kon [2] [M⁻¹ s⁻¹]	Kd [3] [nM]	koff [4] [s⁻¹]	kon [5] [M⁻¹ s⁻¹]	Kd [6] [nM]	Molecule
215	177000	2.8				Slit2D2-HSA (as disclosed in Patent Application PCT/CN2015/092079) (from UniProt O94813 271-479; P02768 25-609)
			0.00339	744000	4.5	Slit2N protein (ligand, UniProt O94813 31-1121, looked up) QCSCSGSTVDCHGLALRSVPRNIPRNTERLDLNGNNITRITKTDFAGLRHLRVLQLMENKISTIERGAFQDLKELERLRLNRNHLQLFPELLFLGTAKLYRLDLSENQIQAIPRKAFRGAVDIKNLQLDYNQISCIEDGAFRALRDLEVLTLNNNNITRLSVASFNHMPKLRTFRLHSNNLYCDCHLAWLSDWLRQRPRVGLYTQCMGPSHLRGHNVAEVQKREFVCSGHQSFMAPSCSVLHCPAACTCSNNIVDCRGKGLTEIPTNLPETITEIRLEQNTIKVIPPGAFSPYKKLRRIDLSNNQISELAPDAFQGLRSLNSLVLYGNKITELPKSLFEGLFSLQLLLLNANKINCLRVDAFQDLHNLNLLSLYDNKLQTIAKGTFSPLRAIQTMHLAQNPFICDCHLKWLADYLHTNPIETSGARCTSPRRLANKRIGQIKSKKFRCSAKEQYFIPGTEDYRSKLSGDCFADLACPEKCRCEGTTVDCSNQKLNKIPEHIPQYTAELRLNNNEFTVLEATGIFKKLPQLRKINFSNNKITDIEEGAFEGASGVNEILLTSNRLENVQHKMFKGLESLKTLMLRSNRITCVGNDSFIGLSSVRLLSLYDNQITTVAPGAFDTLHSLSTLNLLANPFNCNCYLAWLGEWLRKKRIVTGNPRCQKPYFLKEIPIQDVAIQDFTCDDGNDDNSCSPLSRCPTECTCLDTVVRCSNKGLKVLPKGIPRDVTELYLDGNQFTLVPKELSNYKHLTLIDLSNNRISTLSNQSFSNMTQLLTLILSYNRLRCIPPRTFDGLKSLRLLSLHGNDISVVPEGAFNDLSALSHLAIGANPLYCDCNMQWLSDWVKSEYKEPGIARCAGPGEMADKLLLTTPSKKFTCQGPVDVNILAKCNPCLSNPCKNDGTCNSDPVDFYRCTCPYGFKGQDCDVPIHACISNPCKHGGTCHLKEGEEDGFWCICADGFEGENCEVNVDDCEDNDCENNSTCVDGINNYTCLCPPEYTGELCEEKLDFCAQDLNPCQHDSKCILTPKGFKCDCTPGYVGEHCDIDFDDCQDNKCKNGAHCTDAVNGYTCICPEGYSGLFCEFSPPMVLPR
